The series in a line: yeast display, Sf9 membrane polyspecificity reagent, FACS + sequencing; frameworks hold sequencing errors. The method in brief:
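Synthetic nanobody libraries on Saccharomyces cerevisiae BJ5465 were galactose-induced for 36–48 hours, stained 1 hour at 4 °C with 10% biotinylated, detergent-solubilized Sf9 membrane reagent and enriched on streptavidin microbeads. FACS then separated cells into low and high (top ~1%) gates by anti-HA (expression) and streptavidin (reagent binding) fluorescence. Genes were colony-PCR amplified, MiSeq 2 × 250 sequenced and CDR-length filtered. A clone's polyreactivity label is that of its gate of origin.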
“QVQLVESGGGLVQAGGSLRLSCAASGRIFLGYAMGWYRQPPGKVSELVAAINSVASTNYADSVKGRFTISRDNAKNTVYLQMNSLKPEDTAVYYCAAVYFLVQSDLPAYDYWGQGTLVTVSS”: the “polyreactivity (PSR sort gate)” value was “low polyreactivity”.

Consider “QVQLVESGGGLVQAGGSLRLSCAASGFTFWFYAMGWYRQAPGKEREFVAGISRRGGSTYYADSVKGRFTISRDNAKNTVYLQMNSLKPEDTAVYYCASRQFHNGVTTAGYGYWGQGTQVTVSS”, for which the “polyreactivity (PSR sort gate)” value was “high polyreactivity”.

With “QVQLVESGGGLVQAGGSLRLSCAASGRIFNSYAMGWSRQAPGNERELVAAISSGGSTYYADSVKGRFTISRDNAKNTVYLQMNSLKPEDTAVYYCAARIWTGRGRKLGYGYDYWGQGTQVTVSS”, the “polyreactivity (PSR sort gate)” value is “low polyreactivity”.

On to “QVQLVESGGGLVQAVGSLSLSCAASGIIFTWYDMGWYRPAPGKERELVAAISYIGGGSTYYADSVKGRFTISRDNAKNTVYLQMNSLKPEDTAVYYCATDFYYAKYGYWGQGTQVTVSS”, for which the “polyreactivity (PSR sort gate)” value is listed as “low polyreactivity”.

Consider “QGQLEESGGGLFQAGGSLRLSCAASGRIFLYNGMGWYRQAPGKERELVAGITTGGNTNYADSVKGRFTISRDNAKNTVYLQMNSLKPEDTAVYYCAAEVIVYGWSPDYDYWGQGTQVTVSS”, for which the “polyreactivity (PSR sort gate)” value is recorded as “low polyreactivity”.

For the sequence “QDQLVESGGGLDQAGCILRLSCAASGITFSVYTMGWSRQAPGKERELVAANDSDGITNYADSVKGRFTISRDNAKNTDYLQMNSLKPEDTAVYYCNAIADGSSSRWRPYSKFYYWGKGTQVTVSS”, the “polyreactivity (PSR sort gate)” value is “low polyreactivity”.

In the case of “QVQLVESGGGLVQAGGSLRLSCAASGFTFSPNAMGWYRQAPGKERELVAAISKRGASTYYADSVKGRFTISRDNAKNTVYLQMNSLKPEDTAVYYCNVGASARKPYDYWGQGTQVTVSS”, the “polyreactivity (PSR sort gate)” value was “high polyreactivity”.

On to “QVQLVESGGGLVQAGGRLRLSCAASGFSFSLYGMGWYRQAPGKERELVAAIRSGGSPNYADSVKGRFTISRDNAKNTVYLQMNSLKPEDTAVYYGATDIHSVHNNRDKHDYDYWGQGTQETVSS”, for which the “polyreactivity (PSR sort gate)” value is recorded as “low polyreactivity”.

For “QVQLVESGGGLVQAGGSLRLSCAASGRTFLTNAMGWYRPAPGKERELVAAISSGASTNYADSVKGRFTISRDNAKNTVYLQMNSLKPEDTAVYYCAAQLTDYQSKTLSYDYWGQGTQVTVSS”, the “polyreactivity (PSR sort gate)” value is reported as “low polyreactivity”.

For the sequence “QVQLVESGGGLVQAGGSLRLSCAASGSILGTYAMGWTIQAPGKERELVAAISSSGRTSYADSEKGRFTISRDNAKNTVYLQMNSLKPEDTAVYYCNASNYIVLINDPDAAPWLYDYWGQVTQVTVSS”, the “polyreactivity (PSR sort gate)” value was “low polyreactivity”.

For the sequence “HVQLVESAGGLVQAGGSLRLSCAASGRIFAVYAMGWYRQAPGKERELVAAISYIGGSTYYADSVKGRFTISRDNAKNTVYLQMNSLKPEDTAVYYCNKDIPKRQYVVYRTAYEYDYWGQGTQVSVSS”, the “polyreactivity (PSR sort gate)” value was “low polyreactivity”.

Consider “QVQLVESGGGLVQAGGSLRLICAPSGRIFEGYAMGWYRPATRKERELVAAISRGGGSTYYADSVKGRFTISRDNAKNTVYLQMNSLIPEDTAVYYCAKVPLTYSRSGYEYDYWGQGTQVSVSS”, for which the “polyreactivity (PSR sort gate)” value is recorded as “low polyreactivity”.

With “QVQLVESGGGLVQAGGSLRLSCAASGRIFYLNAMGWYRQAPGKERELVAGITNSTTGTYYADSVKGRFTISRDNAKNTVYLQMNCLKPEDTAVYYCITDVAYEEPVETYDYWGQGTQVTVSS”, the “polyreactivity (PSR sort gate)” value is listed as “low polyreactivity”.

Regarding “QDQLVESGGGIVQAGGSLRLSCAASGFIFSTNAMGWYRQAPGKERELVAAITGRGTNTYYADSVKGRFTISRDNAKNTVYLQMNSLKPEDTAVYYCAADNKDSEDDYWGQGTQVTVSS”, the “polyreactivity (PSR sort gate)” value is listed as “high polyreactivity”.

On to “QVQLVESGGGLVQAGGSLRLICAASGGIFWYYAMGWYRQAPGKERELVATISSGGSTKYADSVKGRFTISRDNAKNTVYLQMNSLKPEDTAVYYCNKVFPNLYIYVVRGLIEMDYWGQGTQVTVSS”, for which the “polyreactivity (PSR sort gate)” value is “low polyreactivity”.

Consider “QVQLVESGGGLVQAGGSLRLSCAASGRTFAIYAMGWYRQAPGIEREFVAAISWSGGDTYYADSVKGRFTISRDNAKNTVYLQMNSLKPEDTAVYYCAARDNDYEGRDLQYELDYWGQGTHVTVSS”, for which the “polyreactivity (PSR sort gate)” value was “low polyreactivity”.
